Earlier results on two substances are cited in paper PMC5221605.

Series [1] concerns the target Fibrinogen (Homo sapiens) (UniProt P02671).
The target of a further series is Fibrin (Homo sapiens) (UniProt P02671).
Series [2] has as its target Fibrinogen Aα-chain 561-575 (Homo sapiens) (UniProt P02671).

Sequence of UniProt P02671 (P02671 36-866, chain 1 of 3): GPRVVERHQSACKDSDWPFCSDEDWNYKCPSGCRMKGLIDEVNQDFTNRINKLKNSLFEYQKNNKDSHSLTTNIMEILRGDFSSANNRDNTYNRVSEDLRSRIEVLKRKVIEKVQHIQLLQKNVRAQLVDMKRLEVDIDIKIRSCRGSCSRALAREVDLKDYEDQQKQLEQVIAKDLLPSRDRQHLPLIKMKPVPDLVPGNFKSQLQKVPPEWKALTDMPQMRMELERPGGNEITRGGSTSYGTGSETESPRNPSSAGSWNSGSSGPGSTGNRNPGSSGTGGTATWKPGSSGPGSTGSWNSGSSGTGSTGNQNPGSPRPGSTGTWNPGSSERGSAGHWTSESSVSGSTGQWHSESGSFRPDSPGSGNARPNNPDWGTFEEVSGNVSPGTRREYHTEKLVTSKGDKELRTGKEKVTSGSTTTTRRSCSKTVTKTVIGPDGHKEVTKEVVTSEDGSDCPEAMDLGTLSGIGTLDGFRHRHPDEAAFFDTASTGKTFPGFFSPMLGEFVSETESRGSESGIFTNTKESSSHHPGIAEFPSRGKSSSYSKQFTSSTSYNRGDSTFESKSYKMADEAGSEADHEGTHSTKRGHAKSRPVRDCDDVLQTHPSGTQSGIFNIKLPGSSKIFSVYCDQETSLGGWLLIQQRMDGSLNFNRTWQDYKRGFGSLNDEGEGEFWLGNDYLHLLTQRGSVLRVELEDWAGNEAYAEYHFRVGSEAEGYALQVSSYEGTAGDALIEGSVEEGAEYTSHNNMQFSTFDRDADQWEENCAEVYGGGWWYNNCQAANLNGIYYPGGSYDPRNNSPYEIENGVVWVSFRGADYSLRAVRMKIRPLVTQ
Sequence of UniProt P02671 (P02675 45-491, chain 2 of 3, further chain): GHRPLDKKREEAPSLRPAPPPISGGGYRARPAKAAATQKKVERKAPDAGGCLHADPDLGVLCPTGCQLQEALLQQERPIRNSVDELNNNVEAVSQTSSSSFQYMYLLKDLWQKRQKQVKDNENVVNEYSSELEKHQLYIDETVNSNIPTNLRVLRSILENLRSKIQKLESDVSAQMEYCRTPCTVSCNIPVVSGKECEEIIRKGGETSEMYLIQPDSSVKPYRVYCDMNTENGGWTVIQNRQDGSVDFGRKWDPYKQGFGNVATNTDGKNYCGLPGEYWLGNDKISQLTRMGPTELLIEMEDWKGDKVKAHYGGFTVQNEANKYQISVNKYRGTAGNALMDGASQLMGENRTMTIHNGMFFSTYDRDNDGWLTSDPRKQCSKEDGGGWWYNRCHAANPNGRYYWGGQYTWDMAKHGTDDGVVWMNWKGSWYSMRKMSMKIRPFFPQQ
Sequence of UniProt P02671 (P02679 27-453, chain 3 of 3, further chain): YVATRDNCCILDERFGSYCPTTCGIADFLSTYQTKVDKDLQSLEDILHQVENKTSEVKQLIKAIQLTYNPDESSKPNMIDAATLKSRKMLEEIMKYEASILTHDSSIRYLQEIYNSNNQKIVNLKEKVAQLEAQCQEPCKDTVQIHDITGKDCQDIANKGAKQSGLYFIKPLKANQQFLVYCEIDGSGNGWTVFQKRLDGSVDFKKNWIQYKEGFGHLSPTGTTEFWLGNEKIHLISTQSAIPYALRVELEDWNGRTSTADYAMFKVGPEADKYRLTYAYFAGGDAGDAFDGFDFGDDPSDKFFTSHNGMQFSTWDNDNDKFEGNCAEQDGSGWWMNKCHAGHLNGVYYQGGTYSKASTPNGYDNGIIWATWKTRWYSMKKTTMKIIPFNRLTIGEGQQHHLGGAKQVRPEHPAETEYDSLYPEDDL

In the case of ClfA (from UniProt Q2G015), the Kd (in series [1]; in the series with Fibrin (Homo sapiens)) was 500 nM in each case.
Bbp N2-N3 (from UniProt Q6GJA6): the dissociation constant (Kd) in series [2] was 500 nM.
